Results: the DeepSol protein solubility set

Experiment: soluble on expression in E. coli; label from the status in PepcDB or PDB records

Row | Sequence | soluble on expression in E. coli
1 | MRIEQELKLGFKDVLFRPKRSTLKSRSQVNLTREFTFKHSGRQWSGVPVIAANMDSVGSFAMAKALAEHGVMTAVHKHYTVADWAEFVKSADKATLNNVMVSTGTSEADFQKTKDVMALSDELIFICIDIANGYSEHLVEYVQRVRAAFPDKVISAGNVVTGDMVEELILAGADIVKVGIGPGSVCTTRVKTGVGYPQLSAIIECADAAHGLGGRIIGDGGCTCPGDVAKAFGGGADFVMLGGMLAGHEEAGGELIVKDGETFMKFYGMSSKSAMDKHSGGVAGYRAAEGKTVLLPYRGSVHGTIQDILGGVRSTCTYVGAAELRELTKRTTFIRVQEQENNVYGRE | soluble
2 | MRIGHGFDVHKFGENGSGPLIIGGVRIPYEKGLLAHSDGDVALHAATDALLGAAALGDIGKLFPDTDPAFKGADSRGLLREAYRRILAKGYKLGNLDITIIAQAPKMAPHIPQMRVNLAEDLQCHMDDINVKATTTEQLGFTGRGEGIACEAVVLLVNVEQG | not soluble
3 | MRILEKNHGKSRVRFNCTHPIKPAAWVLAANVSLLGCAYAATDENNSQKKERENNPANTTITVTASPLRHAGVTEDSGSYNTSSMSTATGLNISARETPQSVSVLTKQRMRDQNLNSVESAVNNITGISVRQFDSDRFGFTSRGMAVNNVMRDGVATFYDTRFNYGDNTLDTDMFDRIEVVRGAAGLMAGPGNPSAVINLVRKRPTQDFRGSVSAGVGSWEKWRTALDISGPLNSEGSVRGRFVTAYEDKNSFVNRYDQSKNPFYGILEIDVTPNTLFTFGADTQRTLTRGGMFGGLPLFNSAGGRTNYAQSATTASDWASAETRTQTLFSSLQHNFDNGWNIKGTFTFDNDKLRQDVMWPTGYPDPQTNIGMRPGSLSLIDGARRQQNYDIQVNGQYSLFGRQHQLGLGWNRQRQNIDNDYYLATCNATRTCPDLGDFTQPGWQYPKPVWSDKRAYGSKGRSDQSSQYVVTQLSLIDPLTLILGGRLTTWETRGDNFGTPQNARYKNEFVPYSGLTYDINRDLSVYTSYTEIFNPENRRDRNNTLLAPVSGQNYEAGLKGVAFDNSLDYSLAVFEIRQNNMPVPDTTAPRLPDNSQPYFAVDGTKTRGFEAEVSGKMTEDWNISAGYTQYNVKLPSSNTQTPVTPVTPRKVLKLFTTYTLPGQLSDLTLGGGVNWQSQIARNLSSPIGIQQIGQGSFAIYSLMSRYQFTPQLSLTVNLDNLFNQHYYTQIGQYNQYLLGAPRNVDATVRYTF | not soluble
4 | MRINFEKANSNHINIIFSWLKEPFIQEFWDNTQAHKDDILNFINGRTEPSSYADGKYVYWIASGNGHPFAMLMTIQETSEDEIDDIKLINLSKTGHSYGIDYMIGDKNYFGIGYGARTLIEFIDFFIKEVDPKADTFLIDPASDNPRAKHVYIKAGF | soluble
5 | MRIQVNAKGAARLLSRHLWVFRRDVVSGPETPGLYPVYWGRRFLALALYNPHTDLAVRAYRFAPAEDPVAALLENLAQALARREAVLRQDPEGGYRLVHAEGDLLPGLVVDYYAGHAVVQATAHAWEGLLPQVAEALRPHVQSVLAKNDARTRELEGLPLYVRPLLGEVPERVQVQEGRVRYLVDLRAGQKTGAYLDQRENRLYMERFRGERALDVFSYAGGFALHLALGFREVVAVDSSAEALRRAEENARLNGLGNVRVLEANAFDLLRRLEKEGERFDLVVLDPPAFAKGKKDVERAYRAYKEVNLRAIKLLKEGGILATASCSHHMTEPLFYAMVAEAAQDAHRLLRVVEKRGQPFDHPVLLNHPETHYLKFAVFQVL | soluble
6 | MRKLAAFLGLVGLLSLGLAQSAQEILDRVEKNLSTPWQATVQGRIQGPGGEEELLARVYALPQARLFRVEFLKPGSLEGNFTVITEKEVWNYLYLTNQLVISPREKAKIQGLGFAPQGLGDLKALSEQVDLRLEGEVRLPEGMAWKLVGRSKENQGFAAMELYILKADPRPLRFVFLDEKGKVLADLKVVEFKRTNLTEAQLKRYPKDAQVVRR | soluble
7 | MRKLISTIIVSTLLIGGCSTVHKEAKHSSQSIPEEVPASQYKGQGFQPVAEKSAIAHAKKYREEYEKLGEQFFKDNFSLNVKATNVVGSGDGVEVYVHCDDHDIVFNASIPFDKEAIHEEGSMRSNDNGDTMSNMVGTVLSGFEYKAQKEKYDNLTKFFKDNEEKYQYTGFTKEAIHKTQNVGYQNEYYYLAGNVTNINNYRKYYEPLIKKDSKNFKEGMKKANEATNFKAKIEVVSTLFSTKSDFTKNNSKKDLLFLSDDLYHYKEKPENTNITLQLSEPKINSTRAFYDANNPLEYGVHKHELEHHHHHH | soluble
8 | MRKSKRERQRLLQETIRENPFITDEELAEKFSVSVQTIRLDRLELSIPELRERIKNVARQSFADKVRALPLEEVIGDIIDIEPDASAISIFDVKEEHVFRRTRIARGHHLFAQANSLAVAVIHDELALTAKATIRFVRQVKEGERVVAKAKVTGKTAHGRTIVEVNSYVGQELVFSGTFEMYRSNIEKKDGDSNEYRG | not soluble
9 | MRKSRLSQHKQNKLIELFVAGVTARTASKLVNVNKNTATITFIDYAYSFIKQAHIWKCLKAKLKPMKAISAVLEKANVVAVLQGKSQYSGFSNEMQGLYRRCS | not soluble
10 | MRLEECRKRLEELEAAREELLKVLREMRIHSTKSIALIHAGKVEEAEQELKKAIELLEKVKAYREYPEIYFYLCNDAMQELVEAIAFKNAISGEFTFEIDLEVTPAAFLNGFADAVGELRRYALTKLIEGDFKSAERMLEVMEKIYERLMEFTTFPDKLVSGLRKKLDVARGGIERTKSDYIAAKVARLNESLGGN | not soluble
11 | MRLEIAEKYMAEAYEYLKKGDTIQASGKAYKVAEEIVKAIKFLISKLIGQDVGVISPYRTQVRKLDQELANYKPYVEVNTVDAFQGREKDVIIFSVTATNGLRFVTNRRRLNVAFTRPRYKLIVLGNENSIMSCQMTIC | soluble
12 | MRLFAINAGNFKLDGGAMFGVVPKSIWNKLNPADSNNLCTWATRCLLIENGKQLVLIDTGLGDKQDESFFRHYYRDTPQTWDTLLKPYGFHSSDITDVVLTHLHFDHVGGALEKKGDKIVPTFSNARYWSNTRHWDWAVEPNPREKASFLKDNLFPLQESGQLYFVDTQNLPFEWMDFIFVDGHTEQQMLPLITTPAEKKILYAADLLPSAGHIPMPYIMSYDVRPLVSMQEKERVFNQVLAEDWTVFLEHDLSNACISLQQTEKGIRLNNVFQISDFNLEHHHHHH | not soluble
13 | MRLIEQAIEKIESGQVTEGLTALEEAAKTANHEMKYTVAETYYELGHLDKAQAIIDELLMLYPDEGGLYTFAAEILIDLNKEDEAIEMLNEIKEQDPAFLQAQLLLADLYQLQSLDEVAEQKLLKAYEVAPDEPIISFGLGEFYLERGDYIKSIPHLKRAKHGGLTNDQVNVSLKLAEAYSGSGQFEEALPHYDEGLKQKLDPHGLFGYGYTAYLLGDYVLAIEQFQALKALDPDFYDPIPVFGEGFRRGKSFRGSNGCFKRGDDRGLEHHHHHH | soluble
14 | MRLPIFLLALSSASIVFSLDPVPEEYANVPKEFFEKFQAAIKSGDPVAVVDLFAPDDMLPVSGMIEAAQGIIKSFESYPTGIIERVRYEYGVIQINVRYYPNTPLLSKKTTIFKIKYENKWKGWTMVHFSDWM | not soluble
15 | MRLSDAEILHELRHTPLKELGERAYEVKKRLHPKRITTFVVDRNINYTNICWVDCKFCAFKRKLSQEETYILSFEEIDRKIEELIAIGGTQILFQGGVHPELKIEWYENLVSHIAQKFPEITIHGFSAIEVDYIARLSKLSLKETLQRLQAAGLSSIPGAGAEILSDRVRDIIAPKKLSADRWIEVHRTAHQIGMKSTATMMFGTIEEEEDIIEHWRRIRELQEETGGFRAFILWSFQPHHTPLKAEFPHLQKSSSNRYLRLLAASRLYLDNFPNLQSSWVTQGSYIGQMALLFGANDLGSTMMEENVVSAAGARNQMNQEEMIALIKDVGELPAKRNTAYEILERY | not soluble
16 | MRLYMEMTNAQRLILSNQYFLMSQLDPNNANKYKRLQTIVERGYELHMRELNREFGCLPETECREIIDIMEMYHAMQESNRMLDDAARKDVDQRRLTFLGFDMATEAQLVNYVRFLVDSEGLYPQFDKGEHHFNSQMPMLAKYRRMLTTWRNCPRQYHLSGNELRQIMNA | not soluble
17 | MRNAHAVEAMRVPHPVRGTVSLVEWHMARARNHINVLEENMTLLMEQAHANESLFYRLLHLQSRLVAADSLDEMLVRFHRWARDLGLAGATLRLFPDRWRLGAPSRYTHLALNRQAFEPLRIQRLGQSQHYLGPLNGPELLVVLEHHHHHH | soluble
